Measured values as given in article PMC10063658, “The RNA-binding protein hnRNP F is required for the germinal center B cell response”.

Experiments:
CELF2 (mouse) = assay: pull-down/MS; settings: Pull-down: 20 mM Tris-HCl pH 7.5, 200 mM NaCl, 6 mM EDTA, 5 mM KF, 5 mM beta-glycerophosphate, 4 h at 4 C, 100 ug nuclear extract; EMSA: BersinBio RNA-EMSA …
[1] = tested on: hnRNP H1 (B cell nuclear extract) (mouse); assay: pull-down/MS; settings: Pull-down: 20 mM Tris-HCl pH 7.5, 200 mM NaCl, 6 mM EDTA, 5 mM KF, 5 mM beta-glycerophosphate, 4 h at 4 C, 100 ug nuclear extract; EMSA: BersinBio RNA-EMSA …
hnRNP H2 (mouse) = assay: pull-down/MS; settings: Pull-down: 20 mM Tris-HCl pH 7.5, 200 mM NaCl, 6 mM EDTA, 5 mM KF, 5 mM beta-glycerophosphate, 4 h at 4 C, 100 ug nuclear extract; EMSA: BersinBio RNA-EMSA …
hnRNP H3 (mouse) = assay: pull-down/MS; settings: Pull-down: 20 mM Tris-HCl pH 7.5, 200 mM NaCl, 6 mM EDTA, 5 mM KF, 5 mM beta-glycerophosphate, 4 h at 4 C, 100 ug nuclear extract; EMSA: BersinBio RNA-EMSA …
hnRNP F = target: T1, hnRNP F (mouse, UniProt Q9Z2X1 1-415); assay: EMSA; Pull-down: 20 mM Tris-HCl pH 7.5, 200 mM NaCl, 6 mM EDTA, 5 mM KF, 5 mM beta-glycerophosphate, 4 h at 4 C, 100 ug nuclear extract; EMSA: BersinBio RNA-EMSA kit, 12.5 nM biotin-RNA, 200 ng protein; settings: protein: recombinant, tags: His
T1 sequence: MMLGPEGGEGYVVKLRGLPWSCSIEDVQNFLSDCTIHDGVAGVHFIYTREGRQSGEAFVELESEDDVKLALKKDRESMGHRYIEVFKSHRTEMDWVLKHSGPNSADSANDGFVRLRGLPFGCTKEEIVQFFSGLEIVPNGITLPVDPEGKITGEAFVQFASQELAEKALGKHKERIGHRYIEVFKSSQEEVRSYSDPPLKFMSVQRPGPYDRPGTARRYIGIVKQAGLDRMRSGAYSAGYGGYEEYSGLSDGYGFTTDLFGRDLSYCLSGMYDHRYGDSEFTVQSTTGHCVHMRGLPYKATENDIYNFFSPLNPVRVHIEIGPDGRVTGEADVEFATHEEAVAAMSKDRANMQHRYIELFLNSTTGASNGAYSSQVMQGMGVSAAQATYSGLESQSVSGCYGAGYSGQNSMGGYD

For Cd40 exon 6 sense RNA, the binding signal (fold LFQ (sense/antisense)) (CELF2 (mouse)) was > 5, the binding signal (fold LFQ (sense/antisense)) [1] was > 5 and the binding signal (fold LFQ (sense/antisense)) (hnRNP H2 (mouse)) was > 5. The binding signal (fold LFQ (sense/antisense)) (hnRNP H3 (mouse)) was > 5.

UCCAGGGGAGAAUGGCCUUGCCAAGUCUUUGGGAAGCAGGGAACU (ssRNA) [I6-WT]: binds (hnRNP F).

UCAGGAGAGGAAAGGGAGGGAGGGU (ssRNA) [I7-WT]: binds (hnRNP F; label: 5' biotin).
